Experimental data reported in patent US20180298051A1 (Scripps Research, published 2018).
Ends that are not written are not given here.

Biological target: T1, RXFP1 on RXFP1 CRE-Bla cells (human, UniProt Q9HBX9 1-757)
T1 sequence (looked up): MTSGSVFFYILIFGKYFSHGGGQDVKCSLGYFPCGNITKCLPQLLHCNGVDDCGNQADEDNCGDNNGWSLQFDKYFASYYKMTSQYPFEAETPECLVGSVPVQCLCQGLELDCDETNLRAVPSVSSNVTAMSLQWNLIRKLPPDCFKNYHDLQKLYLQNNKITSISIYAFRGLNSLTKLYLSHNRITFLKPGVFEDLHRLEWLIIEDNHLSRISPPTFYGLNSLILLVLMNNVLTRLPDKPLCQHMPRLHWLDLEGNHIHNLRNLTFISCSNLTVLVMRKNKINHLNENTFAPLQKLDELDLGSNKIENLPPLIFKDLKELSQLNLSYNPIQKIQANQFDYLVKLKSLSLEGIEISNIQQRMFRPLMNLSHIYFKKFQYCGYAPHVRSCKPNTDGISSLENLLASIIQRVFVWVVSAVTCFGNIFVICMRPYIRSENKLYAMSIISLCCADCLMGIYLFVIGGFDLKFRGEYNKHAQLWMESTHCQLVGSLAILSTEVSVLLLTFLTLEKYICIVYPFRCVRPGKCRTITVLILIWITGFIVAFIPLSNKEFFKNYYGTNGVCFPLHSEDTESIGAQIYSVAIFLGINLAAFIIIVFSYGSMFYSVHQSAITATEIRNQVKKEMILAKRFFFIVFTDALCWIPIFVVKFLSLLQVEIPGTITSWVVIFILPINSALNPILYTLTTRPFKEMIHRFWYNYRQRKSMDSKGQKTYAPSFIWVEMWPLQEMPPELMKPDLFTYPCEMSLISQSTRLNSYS
Test: cell-based or functional assay

EC50, in vitro FRET assay, RXFP1 CRE-Bla cells: 4.9 nM
B1: relaxin-H2 protein (R&D Systems) (ligand)
chain 1: QLYSALANKCCHVGCTKRSLARFC
chain 2: DSWMEEVIKLCGRELVRAQIAICGMSTWS
modifications: disulfide (positions not given here); ends not checked; also: three disulfides: two between A and B chains, one within A chain, pairings not given here
